Source: patent publication US20250304700A1, “ANTI-BLOOD DENDRITIC CELL ANTIGEN 2 ANTIBODIES AND USES THEREOF” (Biogen MA Inc., priority 2012, published 2025)
Changes are numbered by the printed parent chain.

T1: surface human BDCA2 (Homo sapiens, UniProt Q8WTT0)
T1 construct: stably transfected DG44 CHO cells co-expressing full-length BDCA2 and FcεRIγcDNAs (human or cynomolgus monkey); expressed in transfected cells
T1 sequence (Q8WTT0 1-213): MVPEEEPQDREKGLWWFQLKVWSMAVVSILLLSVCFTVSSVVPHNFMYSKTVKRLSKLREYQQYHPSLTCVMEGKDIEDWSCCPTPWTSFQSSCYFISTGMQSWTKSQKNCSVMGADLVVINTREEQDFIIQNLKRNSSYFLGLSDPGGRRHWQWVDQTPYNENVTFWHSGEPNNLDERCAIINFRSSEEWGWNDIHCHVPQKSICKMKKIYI
T1 sequence (P30273 19-86 partner): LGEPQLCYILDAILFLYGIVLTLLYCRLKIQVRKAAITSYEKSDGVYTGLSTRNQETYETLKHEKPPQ

T2: human BDCA2 ectodomain (Homo sapiens, UniProt Q8WTT0)
T2 construct: huBDCA2 ectodomain: residues 257-425 above (underlined); murine IgG2a Fc (with G4S linker) (N, cleaved yes); made in house
T2 sequence (Q8WTT0 45-213): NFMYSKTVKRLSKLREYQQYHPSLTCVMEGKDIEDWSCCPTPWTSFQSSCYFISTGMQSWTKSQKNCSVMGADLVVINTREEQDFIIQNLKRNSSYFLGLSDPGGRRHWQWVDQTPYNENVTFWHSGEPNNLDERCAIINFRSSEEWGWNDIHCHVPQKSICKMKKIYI

B1: H5/L1: hu24F4 variant, heavy chain version H5 (SEQ ID NO: 49), light chain version L1 (antibody, V domains shown)
VH: DVQLVQSGGGLVKPGGSLRLSCAASGFTFSTYTMSWVRQAPGKGLEWVATISPGDSFGYYYPDSVQGRFTISRDNAKNSLYLQMNRLRAEDTAVYYCTRDIYYNYGAWFAYWGRGTLVTVSS
VL: DIQLTQSPSSLSASVGDRVTITCKASQSVDYDGDSYMNWYQQKPGKAPKLLIYAASTLESGVPSRFSGSGSGTDFTLTISSLQPEDFATYYCQQSNEDPRTFGQGTKVEIK
B2: H3/L1: hu24F4 variant, heavy chain version H3 (SEQ ID NO: 46), light chain version L1 (antibody, V domains shown)
VH: B1 VH with D1E, Q6E, A49S, R86S, T98A, R114Q
VL: B1 VL
B3: H0/L1: hu24F4 variant, heavy chain version H0 (SEQ ID NO: 40), light chain version L1 (SEQ ID NO: 56) (antibody, V domains shown)
VH: EVQLVESGGGLVKPGGSLRLSCAASGFTFSTYTMSWVRQAPGKGLEWVSAISGSGGSTYYADSVKGRFTISRDNAKNSLYLQMNSLRAEDTAVYYCARDIYYNYGAWFAYWGQGTLVTVSS
VL: B1 VL
B4: H6/L0: hu24F4 variant, heavy chain version H6 (SEQ ID NO: 52), light chain version L0 (SEQ ID NO: 54) (antibody, V domains shown)
VH: B1 VH with Q6E, P53G, D55N, S56N, F57Y, Y60S, Q66K, R86S, R114Q
VL: B1 VL with D1A
B5: H1/L1: hu24F4 variant, heavy chain version H1 (SEQ ID NO: 42), light chain version L1 (antibody, V domains shown)
VH: B3 VH with A50T, G53P, S54G, G55D, G56S, S57F, T58G, A61P
VL: B1 VL
B6: H2/L1: hu24F4 variant, heavy chain version H2 (SEQ ID NO: 44), light chain version L1 (antibody, V domains shown)
VH: EVQLVESGGGLVKPGGSLRLSCAASGFTFSTYTMSWVRQAPGKGLEWVSTISPGDSSTIYYADSVKGRFTISRDNAKNSLYLQMNSLRAEDTAVYYCARDIYYNYGAWFAYWGQGTLVTVSS
VL: B1 VL

Experiments:
[1] = system: CD62L on the surface of human pDCs; experiment: CD62L surface expression on pDCs by flow cytometry; type: cell-based; details: PBMC pre-treated 30 minutes, then 10 μg/mL BIIB059 for 1 hour
Method: The MFI of CD62L was determined by gating on pDCs as defined by CD14−, CD20−, HLA-DR+ and CD123+.
Metalloproteinase are known to induce CD62L shedding from the surface of immune cells. […] The surface expression of CD62L was assayed by flow cytometry. GM6001 inhibited the BIIB059-mediated down-modulation CD62L in a dose dependent manner (FIG. 45).

surface human BDCA2 = molecular target: T1, surface human BDCA2; experiment: Direct binding dilution titration FACS on surface human BDCA2; details: transfected cells co-expressing BDCA2 and FcεRIγ
Method: Expression vectors (ch24F4 heavy chain vectors pYL670 or pYL672 and ch24F4 light chain vector pYL671) were co-transfected into 293-EBNA cells and transfected cells were tested for antibody secretion and specificity (empty vector- and a molecularly cloned irrelevant mAb vector-transfected cells served as controls). […] Direct FACS binding to surface human BDCA2 confirmed the specificity of ch24F4. The EC50 binding of both variants of ch24F4 was equivalent to that of the murine 24F4 mAb by direct binding to surface expressed human BDCA2 by dilution titration FACS assay. Stable CHO cell lines secreting ch24F4-huIgG1, kappa mAb and agly ch24F4-huIgG4/G1 hybrid kappa mAb were produced by co-transfection with pYL672/pYL671 and pYL670/pYL671, respectively.
Site-directed mutagenesis was performed using Agilent's QuikChange II mutagenesis kit following the manufacturer's recommended protocol. The C95S variant was constructed using the mutagenic primer 5′ GCAACCTATTACTGTCAACAAAGTAATGAGGATCCTCGGAC 3′ (SEQ ID NO: 38) and its reverse complement, which introduced a new HincII site, producing plasmid pEAG2678. The C95T variant was constructed using the mutagenic primer 5′ CAACCTATTACTGTCAGCAAACTAATGAAGATCCTCGGACGTTCG 3′ (SEQ ID NO: 39) and its reverse complement, which removed a BamHI site, producing plasmid pEAG2679. […]

human BDCA2 ectodomain = molecular target: T2, human BDCA2 ectodomain; experiment: Octet binding of mAbs on anti-human Fc tips to monomeric huBDCA2; details: Example 5, conditioned medium, hu24F4 variants
Method: Site-directed mutagenesis was performed using Agilent's QuikChange II mutagenesis kit following the manufacturer's recommended protocol. The C95S variant was constructed using the mutagenic primer 5′ GCAACCTATTACTGTCAACAAAGTAATGAGGATCCTCGGAC 3′ (SEQ ID NO: 38) and its reverse complement, which introduced a new HincII site, producing plasmid pEAG2678. The C95T variant was constructed using the mutagenic primer 5′ CAACCTATTACTGTCAGCAAACTAATGAAGATCCTCGGACGTTCG 3′ (SEQ ID NO: 39) and its reverse complement, which removed a BamHI site, producing plasmid pEAG2679. Mutated plasmids were identified by screening for the introduced restriction site changes. The full-length light chain cDNA sequences in the resultant plasmids were confirmed by DNA sequencing. Wildtype ch24F4 and the C95S and C95T variant mAbs were expressed transiently in 293E cells by co-transfection of pYL672 and pYL671, pEAG2678 or pEAG2679. Conditioned medium was harvested at 2 days post-transfection. Titers (assayed by Octet on anti-human Fc tips) of both variants were similar to that of wildtype ch24F4, and Western blots of nonreducing SDS-PAGE indicated no gross aggregation or obvious clipping relative to wildtype ch24F4 mAb. […] Conditioned medium containing ch24F4 and the C95 variant mAbs was assayed by Octet for binding to human BDCA2 ectodomain. Antibodies from conditioned medium from transiently transfected cells were bound to anti-human Fc tips, then monomeric huBDCA2 was flowed over the Octet tips, to examine binding and dissociation.
Conditioned medium containing ch24F4 and all hu24F4 variant mAbs was assayed by Octet for binding to human BDCA2 ectodomain. The monomeric huBDCA2 ectodomain was prepared by proteolytic cleavage from the purified muIgG2a Fc-huBDCA2 fusion protein (relevant plasmid: pEAG2423). Antibodies from conditioned medium from transiently transfected cells were bound to anti-human Fc tips, and then monomeric huBDCA2 was flowed over the Octet tips, to examine binding and dissociation.
To explore the possibility of enhancing hu24F4 affinity by substitution at the position of the 24F4 version L1 CDR L3 unpaired cysteine (C95S in hu24F4 light chain expression vector pYL740), a number of version L1 variants were constructed by site-directed mutagenesis. Backmutation to the unpaired cysteine, i.e., S95C, was constructed by site-directed mutagenesis producing plasmid pYL749. Variants S95T, S95A, and S95V were constructed by site-directed mutagenesis producing plasmids pYL750, pYL751, and pYL752, respectively. The full-length light chain cDNA sequences in the resultant plasmids were confirmed by DNA sequencing. C95 variant hu24F4 mAbs were expressed transiently in 293E cells by co-transfection of hu24F4 H4 heavy chain pYL746 or hu24F4 H5 heavy chain pYL747 with hu24F4 L1 variant light chains C95S pYL740, S95C pYL749, S95T pYL750, S95A pYL751 or S95V pYL752 plasmids. Conditioned medium was harvested at 2 days post-transfection. Titers (assayed by Octet on anti-human Fc tips) of all variants were similar, and Western blots of nonreducing SDS-PAGE indicated no gross aggregation or obvious clipping. Conditioned medium containing the C95 variant mAbs was assayed by Octet for binding to human BDCA2 ectodomain. Antibodies from conditioned medium from transiently transfected cells were bound to anti-human Fc tips, then monomeric huBDCA2 was flowed over the Octet tips, to examine binding and dissociation. C95A variants had the slowest off-rates.

Row | Molecule | BIIB059-mediated down-modulation of CD62L [1] | direct binding to surface human BDCA2, in words (surface human BDCA2) | kdis (human BDCA2 ectodomain) [s⁻¹] | kon (human BDCA2 ectodomain) [M⁻¹ s⁻¹]
1 | CNC(=O)[C@H](Cc1c[nH]c2ccccc12)NC(=O)[C@@H](CC(=O)NO)CC(C)C [GM6001, reference compound] | inhibited |  |  | 
2 | B1 |  | “best” variants |  | 
3 | B2 |  |  | 0.00586 | 452000
4 | B3 |  |  | 9.5e-06 | 100000
5 | B4 |  |  | 0.00137 | 273000
6 | B5 |  |  | 5.03e-06 | 100000
7 | B6 |  |  | 3.35e-06 | 100000
